Test results taken from US10501748B2, “Methods and compositions for integration of an exogenous sequence within the genome of plants” (Dow AgroSciences LLC, priority 2013, dated 2019).

Experiments:
[1] = test system: endogenous AHAS genes (three homoeologous copies); test: transient assay of ZFN-mediated NHEJ-directed AHAS editing in PEG-transfected SEC protoplasts; assay type: cell-based, Triticum aestivum; conditions: SEC protoplast
Source text: (§1) The first type of donor design was a linear, double stranded DNA molecule comprising 41-bp of sequence that shared no homology with the endogenous AHAS genes in wheat. Two donor DNA molecules were designed, each to target the three homoeologous copies of the AHAS gene. Both donor DNA molecules had protruding 5′ and 3′ ends to provide ligation overhangs to facilitate ZFN-mediated NHEJ-directed DNA repair. The two donor DNA molecules differed by the sequence at their protruding 3′ end. The first donor DNA molecule, pDAS000152 (SEQ ID NO:74 and SEQ ID NO:75), was designed to provide ligation overhangs that were compatible with those generated by cleavage of the endogenous AHAS genes by ZFNs 29732 and 29730 (encoded on plasmid pDAB109350) and to result in the insertion of the 41-bp donor molecule into the endogenous AHAS gene at the site of the double strand DNA break via NHEJ-directed DNA repair. The second donor DNA molecule pDAS000149 (SEQ ID NO: 76 and SEQ ID NO:77) was designed to provide ligation overhangs that were compatible with those generated by the dual cleavage of the endogenous AHAS genes by ZFNs 29732 and 29730 (encoded on plasmid pDAB109350) and ZFNs 30012 and 30018 (encoded on plasmid pDAB109360) and to result in the replacement of the endogenous AHAS sequence contained between the two double strand DNA breaks created by the ZFNs with the 41-bp donor molecule via NHEJ-directed DNA repair.
(§2) The second type of donor was a plasmid DNA vector containing 41-bp of sequence that shared no homology with the endogenous AHAS genes in wheat and that was flanked on either side by sequence that was recognized by the ZFN(s) used to create double strand DNA breaks in the endogenous AHAS genes. This donor design allowed in planta release of the unique 41-bp sequence from the plasmid DNA molecule by the same ZFN(s) used to cleave target sites in the endogenous AHAS genes, and simultaneous generation of protruding ends that were suitable for overhang ligation of the released 41-bp sequence into the endogenous AHAS genes via NHEJ-directed DNA repair. Two plasmid donor DNA molecules were designed, each to target the three homoeologous copies of the AHAS gene. The first plasmid donor molecule, pDAS000153 (SED ID NO:78 and SEQ ID NO:79) (FIG. 8), was designed to provide ligation overhangs on the released 41-bp DNA fragment that were compatible with those generated by cleavage of the endogenous AHAS genes by ZFNs 29732 and 29730 (encoded on plasmid pDAB109350). The second plasmid donor molecule, pDAS000150 (SEQ ID NO:80 and SEQ ID NO:81) (FIG. 9), was designed to provide ligation overhangs on the released 41-bp DNA fragment that were at one end compatible with those generated by ZFNs 29732 and 29730 (encoded on plasmid pDAB109350) and at the other end compatible with those generated by ZFNs 30012 and 30018 (encoded on plasmid pDAB109360). This design allowed the replacement of the endogenous AHAS sequence contained between the two double strand DNA breaks created by ZFNs 29732 and 29730 and ZFNs 30012 and 30018 with the 41-bp donor molecule sequence.
(§3) Seedlings of the donor wheat line were grown in an environment controlled growth room maintained at 18/16° C. (day/night) and a 16/8 hour (day/night) photoperiod with lighting provided at […]. Wheat spikes were collected at 12-14 days post-anthesis and were surface sterilized by soaking for 1 min in 70% (v/v) ethanol. The spikes were threshed and the immature seeds were sterilized for 15 min in 17% (v/v) bleach with gentle shaking, followed by rinsing at least three times with sterile distilled water. The embryos were aseptically isolated from the immature seeds under a dissecting microscope. The embryonic axis was removed using a sharp scalpel and discarded. The scutella were placed into a 9 cm PETRI™ dish containing 2-4 medium without TIMENTIN™, with the uncut scutellum oriented upwards. A total of 25 scutella were plated onto each 9 cm PETRI™ dish. […]

[2] = test system: endogenous AHAS genes (three homoeologous copies); test: transient assay of ZFN-mediated NHEJ-directed AHAS editing in biolistically transfected scutella; assay type: cell-based, Triticum aestivum; conditions: for Editing Frequency (ppm): NHEJ, scutella; for molecular evidence for ZFN-mediated NHEJ-directed gene editing: samples of SEC protoplasts and scutella, with pDAB109350 (pDAS000149, pDAS000150 also pDAB109360)
Source text: as §1, §2
as §3, with “osmotic MS (E3 maltose) medium,” for “2-4 medium without TIMENTIN™,”, “20” for “25”

[3] = wheat sub-genome A, ZFN 29732-2A-29730, ratio 5:1
[4] = wheat sub-genome A, ZFN 29732-2A-29730, ratio 10:1
[5] = wheat sub-genome A, ZFN 29732-2A-29730, ratio 20:1
[6] = wheat sub-genome A, ZFN n/a (donor only), average of three biological replicates
[7] = wheat sub-genome B, ZFN 29732-2A-29730, ratio 5:1
[8] = wheat sub-genome B, ZFN 29732-2A-29730, ratio 10:1
[9] = wheat sub-genome B, ZFN 29732-2A-29730, ratio 20:1
[10] = wheat sub-genome B, ZFN n/a (donor only)
[11] = wheat sub-genome D, ZFN 29732-2A-29730, ratio 5:1
[12] = wheat sub-genome D, ZFN 29732-2A-29730, ratio 10:1
[13] = wheat sub-genome D, ZFN 29732-2A-29730, ratio 20:1
[14] = wheat sub-genome D, ZFN n/a (donor only)

Row | Molecule | Editing Frequency (ppm) [1, 3] [ppm] | Editing Frequency (ppm) [1, 4] [ppm] | Editing Frequency (ppm) [1, 5] [ppm] | Editing Frequency (ppm) [1, 6] [ppm] | Editing Frequency (ppm) [1, 7] [ppm] | Editing Frequency (ppm) [1, 8] [ppm] | Editing Frequency (ppm) [1, 9] [ppm] | Editing Frequency (ppm) [1, 10] [ppm] | Editing Frequency (ppm) [1, 11] [ppm] | Editing Frequency (ppm) [1, 12] [ppm] | Editing Frequency (ppm) [1, 13] [ppm] | Editing Frequency (ppm) [1, 14] [ppm] | Editing Frequency (ppm) [2, 3] [ppm] | Editing Frequency (ppm) [2, 4] [ppm] | Editing Frequency (ppm) [2, 6] [ppm] | Editing Frequency (ppm) [2, 7] [ppm] | Editing Frequency (ppm) [2, 8] [ppm] | Editing Frequency (ppm) [2, 10] [ppm] | Editing Frequency (ppm) [2, 11] [ppm] | Editing Frequency (ppm) [2, 12] [ppm] | also measured
1 | pDAS000153: plasmid donor with 41-bp sequence flanked by ZFN 29732/29730 sites; SEQ ID NO:78, 79 (nucleic acid, pDAS000153) chain 1: TGGATATCATAGTCCCGCATCAGGAGCACGTGCTGCCTATGATCCCAAGCGGTGGTGCTTTCAAGGACATGATCATGGGTTAGGTGCTGGTGGTCCGAAGGTCCACGCCGCCAACTACGTGGATATCATAGTCCCGCATCAGGAGCACGTGCTGCCTATGATCCCAAGCGGTGGTGCTTTCAAGGACATGATCATGG chain 2: CCATGATCATGTCCTTGAAAGCACCACCGCTTGGGATCATAGGCAGCACGTGCTCCTGATGCGGGACTATGATATCCACGTAGTTGGCGGCGTGGACCTTCGGACCACCAGCACCTAACCCATGATCATGTCCTTGAAAGCACCACCGCTTGGGATCATAGGCAGCACGTGCTCCTGATGCGGGACTATGATATCCA | 0 | 0 | 0 | 0 | 0 | 0 | 0 | 0 | 0 | 0 | 0 | 0 | 4 | 0 | 0 | 0 | 0 | 0 | 0 | 0 | Editing Frequency (ppm) [2, 14]: 0 ppm; molecular evidence for ZFN-mediated NHEJ-directed gene editing [2]: poor evidence
2 | pDAS000150: plasmid donor with 41-bp sequence flanked by sites for ZFNs 29732/29730 and 30012/30018; SEQ ID NO:80, 81 (nucleic acid, pDAS000150) chain 1: TGGATATCATAGTCCCGCATCAGGAGCACGTGCTGCCTATGATCCCAAGCGGTGGTGCTTTCAAGGACATGATCATGGGTTAGGTGCTGGTGGTCCGAAGGTCCACGCCGCCAACTACGGATGGCAGGACCTCGTACTGAAATTTCGACCTACAAGACCTACAAGTGTGACATGCGCAATCAGCATGATGCCCGCGT chain 2: ACGCGGGCATCATGCTGATTGCGCATGTCACACTTGTAGGTCTTGTAGGTCGAAATTTCAGTACGAGGTCCTGCCATCCGTAGTTGGCGGCGTGGACCTTCGGACCACCAGCACCTAACCCATGATCATGTCCTTGAAAGCACCACCGCTTGGGATCATAGGCAGCACGTGCTCCTGATGCGGGACTATGATATCCA | 0 | 0 | 0 | 0 | 0 | 0 | 0 | 0 | 0 | 0 | 0 | 0 | 1 | 0 | 0 | 0 | 0 | 0 | 4 | 0 | Editing Frequency (ppm) [2, 14]: 0 ppm; molecular evidence for ZFN-mediated NHEJ-directed gene editing [2]: Limited evidence
